Measured values taken from article doi:10.1101/2025.09.08.674988.
Read-outs that look alike come from different tables or passages of the source.

Key:
[1] = biological target: T1, NS5B(Δ21)-FlAsH-His (RNA-dependent RNA polymerase) (Hepatitis C virus genotype 2a, UniProt Q99IB8 2443-3012); assay: EMSA
[2] = biological target: T1, NS5B(Δ21)-FlAsH-His (RNA-dependent RNA …); assay: EMSA; remark: listed apart in the source

B1: Synthetic RNA (structured_RNA)
RNA: AGGGUUUUUUUUUUUAUUAUUUAUUCUUUAUUUUUCUUGCGUAGUUUUCUACG
binding result [1]: binds

B2: 5'UTR RNA (ssRNA)
RNA: AUACUAACGCCAUGGCUAGGCGCUUUCUGCGUGAAGACAGUAGUUCCUCACAGGGGAGUGAUUCAUGGCGGAGUGUCGCCCCU
binding result [2]: binds
